The source of these data is the supplement of paper PMC10126150.

± gives the standard deviation of the averaged measurements.
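Further: ATP exposure 15 min at 22 °C before imaging.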

The data set relates to ATP. The data set can be described thus: switch fluorescence ratio, 500 uM ATP over buffer (Cy3 cluster intensity, sum of 5 cycles each) (fold (ratio)); higher = stronger signal-on switching upon ATP binding; sequences stand for … in TCGTCGGCAGCGTCAGATGTGTATAAGAGACAGTTTTTTTTTTTTTTTTTTTTTTTTT…TC. As to conditions: aptamer strand: ATP DNA aptamer (quencher-CACCTGGGGGAGTATTGCGGAGGAAGG + anchor), 100 nM annealed; ATP concentration: 500 uM. In a few lines:
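Values give the fluorescence ratio for each switch-domain sequence, averaged from per-cluster ratios of summed target-cycle to summed buffer-cycle Cy3 intensity. The Cy3-labelled switching-strand clusters sat on a modified Illumina MiSeq flow-cell, were annealed to 100 nM quencher-labelled ATP aptamer, and were imaged in selection buffer, then after 15 min with 500 uM ATP at 22 °C. Five cycles ran with NaOH stripping and re-annealing between them, and clusters outside 100-1000 RFU were excluded.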
In the case of TTATTATTTC, the switch fluorescence ratio is 0.98 ± 0.05.

Turning to TAAAACATTG, the switch fluorescence ratio is 1.03 ± 0.015. Consider TTGACTGGG, for which the switch fluorescence ratio came to 0.991 ± 0.023.

Take CAGATTAAGT: the switch fluorescence ratio was found to be 0.992 ± 0.03. To GTTAGTGGCA belongs 0.984 ± 0.012; to GATTTGGACG, 1.01 ± 0.028; to ATGCTGCCTG, 1.01 ± 0.019. Turning to TGGGCGAGAA, the switch fluorescence ratio turned out to be 0.9685 ± 0.0052. Under GGTCGGGTAT stands 1.01 ± 0.031. As to TGTTGTTACA, the switch fluorescence ratio was determined as 0.99 ± 0.029.

Take GGTGTCTGT: the switch fluorescence ratio was found to be 0.9738 ± 0.0044. As to CCGTTGTGGA, the switch fluorescence ratio was found to be 1.038 ± 0.0027. As to ATTGATTAGG, the switch fluorescence ratio was determined as 0.988 ± 0.043. With GAGAAGGAGG, the switch fluorescence ratio is 1.01 ± 0.012.

For the sequence CTATTGAATC, the switch fluorescence ratio turned out to be 1.022 ± 0.0015.

As to GTGCTTCGGT, the switch fluorescence ratio came out at 0.948 ± 0.026. To TTGCTGTTGC belongs 1.001 ± 0.0095; to GGGAAGCCGT, 1.14 ± 0.23. Turning to GGGGGCCGGC, the switch fluorescence ratio is 1.028 ± 0.0031. With TCGAAGTATC, the switch fluorescence ratio amounted to 1.12 ± 0.058. To ACTTACGGCG belongs 1.168 ± 0.0051. With TACGGCTAAG, the switch fluorescence ratio is 1.07 ± 0.047. TTAGTTGGGC: the switch fluorescence ratio is 1.01 ± 0.069. Take ATGCAGCGGG: the switch fluorescence ratio came to 1.01 ± 0.028.

In the case of TTAAGGGATG, the switch fluorescence ratio stood at 1.03 ± 0.043. As to GCGCTATATG, the switch fluorescence ratio turned out to be 1.16 ± 0.049.

As for GTGGTGTGGT, the switch fluorescence ratio is 0.982 ± 0.011. As to GTAACCAAGA, the switch fluorescence ratio was 1.02 ± 0.0035.

On to GCTTCGAGGG, for which the switch fluorescence ratio was determined as 0.968 ± 0.013. As for TTTATTTTCC, the switch fluorescence ratio worked out at 1.05 ± 0.033. Under GGCGGGGTCG stands 1.01 ± 0.038. To TAATACCCCG belongs 1.06 ± 0.054; to TGTTTTATGT, 0.989 ± 0.032. Consider AACGGTACCG, for which the switch fluorescence ratio was determined as 0.981 ± 0.014. TTGGTGAACG: the switch fluorescence ratio came out at 0.989 ± 0.024. Turning to ATTGAAATCA, the switch fluorescence ratio is 0.987 ± 0.018. For the sequence CATCATGTCT, the switch fluorescence ratio stood at 1.01 ± 0.03. For the sequence CAATAGGATG, the switch fluorescence ratio stood at 1.012 ± 0.0067. Under AATATATGGG stands 0.973 ± 0.021.

With TGTGGGTGTT, the switch fluorescence ratio is 0.961 ± 0.011. Turning to AGAGTCCCTT, the switch fluorescence ratio amounted to 1 ± 0.036. Take CTAAGATAGG: the switch fluorescence ratio came out at 1.01 ± 0.029. TGGGGGAGA: the switch fluorescence ratio was found to be 1.04 ± 0.017. Turning to TTTCCACGGG, the switch fluorescence ratio was determined as 1.18 ± 0.025. For the sequence TTTGAATTAA, the switch fluorescence ratio is 1.01 ± 0.049.

For GTGAGGTGCA, the switch fluorescence ratio is 1.01 ± 0.052.

With GGTTCAAGGA, the switch fluorescence ratio is 0.99 ± 0.063. As to GATAGGGGTT, the switch fluorescence ratio turned out to be 0.975 ± 0.022. Turning to TAATTGATTA, the switch fluorescence ratio stood at 1.0033 ± 0.00096. To TTAAGGGACC belongs 1.022 ± 0.0089. AGGGGGGATC: the switch fluorescence ratio was determined as 1.01 ± 0.046. To CATCGAGTTC belongs 1.05 ± 0.025; to TGCAGGGATG, 0.986 ± 0.041; to TTTGCTGGTA, 1.006 ± 0.0064.

For the sequence CGGGGAGGCG, the switch fluorescence ratio came to 0.982 ± 0.079.

On to TTTAATGCAA, for which the switch fluorescence ratio stood at 1.05 ± 0.033. As for ATGCACTCGA, the switch fluorescence ratio was 1.03 ± 0.012. Under AGTATAATTT stands 0.978 ± 0.045. With AGGCTGCAG, the switch fluorescence ratio came out at 0.961 ± 0.037. With TTTAAAGGGT, the switch fluorescence ratio came to 1.01 ± 0.031. TTGGGTGGC: the switch fluorescence ratio is 0.999 ± 0.011. With TTCATGGATA, the switch fluorescence ratio was 0.999 ± 0.066. Under TTTTTGCTTC stands 1.02 ± 0.043; under CGGATCAGAA, 0.9956 ± 0.001; under TCTGCTTGAG, 1.03 ± 0.022. Regarding AGGAAAGTCT, the switch fluorescence ratio came out at 1.02 ± 0.066. For the sequence TTGGGTCGTT, the switch fluorescence ratio was determined as 0.994 ± 0.014.

As to TCTTATCTGG, the switch fluorescence ratio turned out to be 0.972 ± 0.012.

Consider GCTGGGCGGC, for which the switch fluorescence ratio was found to be 0.95 ± 0.014. For the sequence TTATAGTGGG, the switch fluorescence ratio came out at 1 ± 0.022. Under GGGAAGGGGT stands 1.01 ± 0.055; under GCAGTCTGGT, 0.98106 ± 0.00091; under CACCGGAAGG, 1.02 ± 0.024.

As to TTTGACGGTT, the switch fluorescence ratio was found to be 1.03 ± 0.015. To AGGGGCGGTG belongs 0.994 ± 0.017; to TTATTTACTA, 1.04 ± 0.011. Under TCTATGGTGA stands 1.0391 ± 0.00096. To AGAGGCTTAG belongs 1 ± 0.066; to GGTTAATTGG, 0.99 ± 0.047; to GAAAAAGCAA, 1.14 ± 0.054. Turning to GGGCACGTGG, the switch fluorescence ratio stood at 0.995 ± 0.035.

TTTAAGGCGG: the switch fluorescence ratio came out at 0.989 ± 0.044. Under TTTTAGGAAT stands 0.997 ± 0.027; under GTCACACTAT, 1.02 ± 0.034. Under GGGCGGTTTT stands 0.993 ± 0.043. With GATGCATGTT, the switch fluorescence ratio worked out at 0.9947 ± 0.0021. For TTCCGGAGGC, the switch fluorescence ratio was determined as 1.22 ± 0.28. In the case of CGGGTCGGCC, the switch fluorescence ratio came to 0.997 ± 0.025.

Turning to AGATGGGGTG, the switch fluorescence ratio was 1.23 ± 0.35. For CGGACATTCA, the switch fluorescence ratio was 1.041 ± 0.0082. On to CGCAGTTGGA, for which the switch fluorescence ratio came out at 1.03 ± 0.039.

As to GGGTAAATTG, the switch fluorescence ratio is 1.041 ± 0.0068. Turning to AAGGTGGCCC, the switch fluorescence ratio was 1.03 ± 0.023.

On to ATTGTGGATC, for which the switch fluorescence ratio amounted to 1.03 ± 0.031.

GATGGGGGGT: the switch fluorescence ratio came out at 1 ± 0.022.

In the case of GGATTCAAAG, the switch fluorescence ratio was determined as 0.993 ± 0.015. Regarding TAAGAGGAGG, the switch fluorescence ratio is 0.98337 ± 0.00017.

As for AATCTCGTGG, the switch fluorescence ratio was 0.995 ± 0.051. To ATATTAGGTC belongs 1.01 ± 0.016; to GAGTAGAAGA, 1.01 ± 0.035. Take GGGCTAGTTC: the switch fluorescence ratio is 1.05 ± 0.077. Turning to GAAGATATTA, the switch fluorescence ratio turned out to be 1 ± 0.011.

In the case of ACGTTATGTG, the switch fluorescence ratio worked out at 1.0491 ± 0.00035. As to GCTTATTAGT, the switch fluorescence ratio amounted to 1 ± 0.0042. Take AAGTTCGGGG: the switch fluorescence ratio turned out to be 1.05 ± 0.088. For the sequence ACCATTGGGG, the switch fluorescence ratio came out at 0.993 ± 0.031.

For the sequence GGTTACCGGC, the switch fluorescence ratio is 0.977 ± 0.079. For the sequence TTTTGTTGCG, the switch fluorescence ratio came to 1.03 ± 0.043.

CAGGGCGATA: the switch fluorescence ratio is 1.1 ± 0.033. Turning to GGCTTAAAAA, the switch fluorescence ratio was 0.982 ± 0.021. As for GGTTAAACAG, the switch fluorescence ratio amounted to 0.982 ± 0.041. Turning to AACCAAAGGT, the switch fluorescence ratio came out at 1.014 ± 0.0017. With TAAGAGATAG, the switch fluorescence ratio came to 0.976 ± 0.012.

As for ACATCCAATT, the switch fluorescence ratio was 0.99 ± 0.019. As for AGATGGCCGG, the switch fluorescence ratio is 1 ± 0.065. To TGAAAAAAGA belongs 0.988 ± 0.019. Under ATTTATATCT stands 1 ± 0.015; under TGGCCTAACT, 1.02 ± 0.042. On to GGAATGTGAA, for which the switch fluorescence ratio stood at 0.978 ± 0.019. Under GGATGCTAGG stands 1.01 ± 0.048.
